Assay results: US20230126400A1 (Alector, published 2023)

T1: human MS4A6A ECL1 peptide (amino acid residues 68-85) (human)
T1 peptide: SASFSPNFTQVTSTLLNS

T2: human MS4A6A ECL2 peptide (amino acid residues 138-185) (human)
T2 peptide: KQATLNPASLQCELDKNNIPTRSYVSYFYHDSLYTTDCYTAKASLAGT

T3: human MS4A4A ECL1 peptide (amino acid residues 86-98) (human)
T3 construct: synthetic peptide
T3 peptide: CMASNTYGSNPIS

T4: BSA-conjugated human MS4A4A ECL2 peptide (amino acid residues 159-179) (human, conjugated to BSA (site not stated))
T4 construct: also called MS4A4A-ECL2 BSA conjugated peptide; BSA-MS4A4A-ELC2 peptide
T4 peptide: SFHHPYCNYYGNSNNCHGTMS

T5: human MS4A4A ECL2 peptide (amino acid residues 159-179), free (human)
T5 construct: synthetic peptide; also called huMS4A4A-ELC2 free-peptide
T5 peptide: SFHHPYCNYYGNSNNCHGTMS


Experiments:
[1] = molecular target: T1, human MS4A6A ECL1 peptide (amino acid …); assay: array SPR
Procedure: (§1) Binding kinetic characterization of the anti-MS4A4A antibodies to MS4A4A ECL1 and ECL2 and to MS4A6A ECL1 and ECL2 peptides was performed by Carterra (South San Francisco, Calif.) using a proprietary array Surface Plasmon Resonance (SPR) instrument (MX-96) as follows. Antibodies were captured onto a CMD500D chip (Xantec # SPMX CMD500D) using the Continous Flow Microspotter (CFM). First, the chip was activated with 100 mM MES pH 5.5, 100 μL EDC (133 mM final), 100 μL of S-NHS (33.3 mM final), for 7 minutes. […] Anti-MS4A4A hydridoma supernatant or purified anti-MS4A4A antibodies were diluted in HBS-EP+ buffer (Teknova Cat # H8022) and then printed as duplicates with a 20 minute and a 5-minute print from the same sample solution.
(§2) These were then injected on the chip for five minutes, followed by a seven-minute dissociation period at 8 uL per second in a non-regenerative kinetic series. Duplicate measurements for each anti-MS4A4A antibody were taken to ensure reproducibility. Association rates (Kon) and dissociation rates (Koff) were calculated using a single one-to-one Langmuir binding model. The equilibrium dissociation constant (KD) was calculated as the ration of Koff/Kon.

[2] = molecular target: T2, human MS4A6A ECL2 peptide (amino acid …); assay: array SPR
Procedure: as §1, §2

[3] = molecular target: T6, human MS4A4A (human, UniProt Q96JQ5 1-239); assay: FACS, HEK293, supernatant
Procedure: (§3) Positive clones identified above were expanded and then rescreened for specificity against HEK293 cells overexpressing human MS4A4A or cyno MS4A4A and parental HEK293 cells. These experiments were performed using supernatants from hybridoma clones which had undergone further expansion after initial selection. Briefly, previously prepared, cryopreserved transiently-transfected cells were labeled with LIVE/DEAD Fixable Aqua Dead Cell Stain Kit (ThermoFisher Scientific L34957) on ice for 30 minutes. After a wash with PBS, 2×10⁵ cells were aliquoted per well in 96-well U-bottom plates and incubated with 50 μl of culture supernatant on ice for 30 minutes. […] Following this secondary incubation, the cells were again washed twice with ice-cold FACS buffer and resuspended in a final volume of 200 μl of FACS buffer. Analysis was performed on a FACS Canto system (BD Biosciences), with sort gates drawn to exclude dead (Aqua-positive) cells. Positive clones (fold change of 1.8 or greater) were carried forward for further testing.

[4] = molecular target: T7, cynomolgus (cyno) MS4A4A (cynomolgus); assay: FACS, HEK293, supernatant
T7 construct: also called cy4A; Cyno 4A
Procedure: as §3

[5] = molecular target: T3, human MS4A4A ECL1 peptide (amino acid …); assay: ELISA, hybridoma supernatant
Procedure: (§4) Briefly, 96-well polystyrene plates were coated with 1-10 μg/ml of synthetic free or BSA-conjugated peptides in coating buffer (0.05M carbonate buffer, pH9.6, Millipore Sigma C3041) overnight at 4° C. Coated plates were then blocked with ELISA diluent (PBS+0.5% BSA+0.05% Tween20) for 1-hour, washed 3×300 μL in PBST (PBS+0.05% Tween20, Thermo Cat#28352), and then the antibodies were added to the plate (50 μl/ml). After 30 mins incubation (room temperature, with shaking), the plates were washed 3×300 μL in PBST. […] After a final set of washes (3×300 μL in PBST), 50 μL of TMB substrate (BioFx TMBW-1000-01) was added and the reaction was then quenched after 5-10 mins with 50 μL of stop solution (BioFx BSTP-1000-01). The quenched reaction wells were detected for absorbance at 650 nm with a BioTek Synergy Microplate Reader using GENS 2.04 software.

[6] = molecular target: T4, BSA-conjugated human MS4A4A ECL2 …; assay: ELISA, hybridoma supernatant
Procedure: as §4

[7] = molecular target: T3, human MS4A4A ECL1 peptide (amino acid …); assay: peptide ELISA
Procedure: as §4, with “[…]” for “1-10 μg/ml”, “Cat#C3041)” for “C3041)”, “μl/well).” for “μl/ml).”, “Cat#TMBW-1000-01)” for “TMBW-1000-01)”, “Cat#BSTP-1000-01).” for “BSTP-1000-01).”, “650nm” for “650 nm”

[8] = molecular target: T5, human MS4A4A ECL2 peptide (amino acid …); assay: peptide ELISA, supernatant
[9] = molecular target: T6, human MS4A4A; assay: FACS, K562 cells, supernatant
Procedure: (§5) Positive clones identified in Example 22 above were expanded and then rescreened for specificity against U937, K562, and/or 300.19 cells stably overexpressing human MS4A4A or cyno MS4A4A and parental U937, K562, and/or 300.19 cells. These experiments were performed using supernatants from hybridoma clones which had undergone further expansion after initial selection. Briefly, stably transfected cells were labeled with LIVE/DEAD Fixable Aqua Dead Cell Stain Kit (ThermoFisher Scientific Cat#L34957) on ice for 30 minutes. […] 2×10⁵ cells were aliquoted per well in 96-well U-bottom plates and incubated with 50 μl of culture supernatant on ice for 30 minutes. […] Following this secondary incubation, the cells were again washed twice with ice-cold FACS buffer and resuspended in a final volume of 200 μl of FACS buffer. Analysis was performed on a FACS Canto system (BD Biosciences), with gates drawn to exclude dead (Aqua-positive) cells.
(§6) The APC ratio was calculated for each antibody as follows. […] For cell lines overexpressing human MS4A4A (h4A) or cyno MS4A4A (cy4A), the ration was calculated by comparing the binding measured to the binding observed on the corresponding parental cell lines.

[10] = molecular target: T6, human MS4A4A; assay: FACS, U937 cells, supernatant
Procedure: as §5, §6

[11] = molecular target: T7, cynomolgus (cyno) MS4A4A; assay: FACS, 300.19 cells, supernatant
Procedure: as §5, §6

[12] = molecular target: T5, human MS4A4A ECL2 peptide (amino acid …); assay: peptide ELISA
Procedure: as §4, with “[…]” for “1-10 μg/ml”, “Cat#C3041)” for “C3041)”, “μl/well).” for “μl/ml).”, “Cat#TMBW-1000-01)” for “TMBW-1000-01)”, “Cat#BSTP-1000-01).” for “BSTP-1000-01).”, “650nm” for “650 nm”

[13] = molecular target: T6, human MS4A4A; assay: functional affinity, FACS titration on stably transfected 300.19 cells
Procedure: (§7) Determination of functional affinity/KD was carried out as follows. A constant number of 300.19 cells stably transfected with constructs expressing MS4A4A were blocked against non-specific binding, and then incubated with anti-MS4A4A antibodies at various concentrations predetermined to span from saturation-binding to no antibodies present for three hours on ice so the reaction is allowed to achieve near equilibrium. The cells were then washed and incubated with fluorophore-conjugated secondary antibodies, washed again, and signal determined by FACS Cantos (Becton Dickinson, Franklin Lake, N.J.). To determine functional/KD, the four-parameter dose response curve with variable slope was fitted onto the data by Prism (Graphpad, San Diego, Calif.), based on the multiple independent binding site model described by Drake and Klakamp, supra.

[14] = molecular target: T7, cynomolgus (cyno) MS4A4A; assay: as above
Procedure: as §7

| Binder | binding result [1] | binding result [2] | Human 4A:parental cell ratio [3] | Cyno 4A:parental cell ratio [4] | binding result [5] | binding result [6] | binding result [7] | other results |
| --- | --- | --- | --- | --- | --- | --- | --- | --- |
| anti-MS4A4A antibody 4A-5 (antibody, V domains shown, murine hybridoma antibody) VH: EVKVEESGGGLVQPGGSMKLSCAASGFTFSDAWMDWVRQSPEKGLEWVAEIRSKTNSHATYYAESVKGRFTISRDDSKSSVYLQMNSLRAEDTGIYYCTVDYYGIFWGQGTLVTVSS VL: not shown | no binding (tested: 2000 nM) | no binding (tested: 2000 nM) | 27.3 ratio | 8.49 ratio | no binding | no binding |  |  |
| anti-MS4A4A antibody 4A-208 (murine) (antibody, V domains shown, murine hybridoma antibody) VH: EVHLQQSGAEVVKPGASVKLSCTASGFNIKDTYIHWVMQRPEQGLEWIGRIDPANDNTKYDPKFQGKATITSDTSSNTAYLHLSSLTSEDTAVYYCARIAYGSWALDYWGQGTSVTVSS VL: DIVMTQSQKFMSTSVGDRVIVTCKASQNVDTNVAWYQQKPGQSPKTLIYSASFRYSGVPDRFTGSGSGTDFTLSISNVQSEDLAEYFCQQYNSYPWTFGGGTKLEIK |  |  |  |  |  |  | no binding | binding result [8]: no binding; fold increase in MFI [9]: > 2 fold; fold increase in MFI [10]: > 2 fold; fold increase in MFI [11]: > 2 fold |
| anti-MS4A4A antibody 4A-25 (antibody, V domains shown, purified murine antibody) VH: QVTLKESGPGILQPSQTLSLTCSFSGFSLRTSDMGVGWVRQPSGEGLEWLADIWWDDNKYYNPSLKSRLTISKDTSSNQVFLKITSVDTADTATYYCARRANYGNLFDYWGQGTAVTVSS VL: DIVMTQSLKFMSTSVGDRVSITCKASQNVRSAVAWYQQKPGQSPKVLIYWASNRHTGVPDRFTGSGSGTDFTLTISNVQSEDLADYFCLQHWNYLTFGSGTKLEIK |  |  |  |  |  |  | no binding | binding result [12]: binds |
| anti-MS4A4A antibody 4A-202 (murine) (antibody, V domains shown, murine hybridoma antibody) VH: QVQLQQSGAELARPGASVKLSCKASGYTFTNYWMQWVKQRPGQGLEWIGATHPGHGDTRYTQKFKGKATLSADKSSSTAYMQLSNLASEDSAVYYCAREEVYYGFRSYWYFDVWGAGTTVTVSS VL: not shown |  |  |  |  |  |  | no binding | binding result [12]: binds |
| anti-MS4A4A antibody 4A-12 (antibody, V domains shown, murine hybridoma antibody) VH: QVQLQQSGAELAQPGASVKMSCKASGYTFSSYWMYWVKQGPGQGLEWIGYINPGTGYTEYNQKFKDKATLTADKSSSTAYMQLSSLTSEDSAVYYCARFYYGSPYYYAMDYWGQGTSVTVSS VL: DIVMTQSQKFMSTSVGDRVTFTCKASQSVDTDVAWYQQKPGQSPKLLIYSASNRYTGVPDRFTGSGSGTDFTLTISNVQSEDLADYFCHQYNSYPLTFGAGTKLELK | no binding (tested: 2000 nM) | no binding (tested: 2000 nM) | 9.58 ratio | 3.96 ratio | no binding | no binding |  |  |
| anti-MS4A4A antibody 4A-17 (antibody, V domains shown, murine hybridoma antibody) VH: QVQLQQSAAELMKPGASVKLSCKATGYTFTGYWIEWLKQRPGHGLEWIGEILPGIGNTKYSEKFKGKATFTADTSSNTAYMQLSSLTTEDSAIYYCARSLLRAMDYWGQGTSVTVSS VL: QIVLTQSPAIMSASPGEKVTMTCSAISSISYMHWYQLKPGTSPKRWIYDTSKLASGVPARFSGSGSGTSYSLTISSMEAEDAATYYCHQRSSYPYTFGGGTKLEIK | no binding (tested: 2000 nM) | no binding (tested: 2000 nM) | 4.83 ratio | 1.67 ratio | no binding | no binding |  |  |
| anti-MS4A4A antibody 4A-18, huIgG1 chimera (antibody, V domains shown, also called 4A-18 (hIgG1)) VH: QVQLQQPGTELVKPGASVKLSCKASGYTFTSYWIHWVKQRPGQGLEWIGNINPTNGGTNYNERFKSKATLTVDKSSSTAYMQLSSLTSEDSAVYYCARAYYYGSSLFAYWGQGTLVTVSA VL: DIVMTQSQKFMSTTVGDRVSITCKASQNVGTAVAWSQQKPGQSPKLLIYSASYRHTGVPDRFTGSGSGTDFTLTITNMQSEDLADYFCQQYSTYPWTFGGGTKLEIK |  |  |  |  |  |  |  | Kd [13]: 0.84 nM; Kd [14]: 3.1 nM |
| anti-MS4A4A antibody 4A-18 (murine) (antibody, IgG1, V domains shown, murine hybridoma antibody, msIgG1; also called 4A-18 (msIgG1)) VH: QVQLQQPGTELVKPGASVKLSCKASGYTFTSYWIHWVKQRPGQGLEWIGNINPTNGGTNYNERFKSKATLTVDKSSSTAYMQLSSLTSEDSAVYYCARAYYYGSSLFAYWGQGTLVTVSA VL: DIVMTQSQKFMSTTVGDRVSITCKASQNVGTAVAWSQQKPGQSPKLLIYSASYRHTGVPDRFTGSGSGTDFTLTITNMQSEDLADYFCQQYSTYPWTFGGGTKLEIK | no binding (tested: 2000 nM) | no binding (tested: 2000 nM) |  |  |  | no binding | no binding | Kd [13]: 1.6 nM |
| anti-MS4A4A antibody 4A-21, huIgG1 chimera (antibody, V domains shown, also called 4A-21 (hIgG1)) VH: QIQLVQSGPELKKPGETVKISCKASGYIFTSYGLSWVKQTPGKGLKWMGWINTYSGVPTYANDFKGRFAFSLETSASTTYLRINNLKNDDTATYFCARSLVDYWGQGTPLTVSS VL: not shown |  |  |  |  |  |  |  | Kd [14]: 7.6 nM |
